Measurements: the DeepSol protein solubility set

experiment: soluble on expression in E. coli; label from the status in PepcDB or PDB records

Row | Sequence | soluble on expression in E. coli
1 | MGSDKIHHHHHHMNIAILNHYASIPEVGSAETRHFELAKRFVREGHRVDIYIGDFSHLTGKRWSETFGWSFSKDGVDFIVVETREYTGNSLSRLLSSIDYYRNGRKKIIQKRYDVIIASSPHPFSWSLGWYYVRRKGGKFFIEIRDVWPDDLVKLGSLSYRHPVSKLFDHMCKKYYPKADGFISLVPDLSEHFNRLKVRPENFIYIPNGVDLKVFKDPEPCPVVDEVFSKVPDGKIKVVYAGSIVEHKGIKEFIETLSKVNKNLRDRFVFFFVGPSHADYLVSVKETAKDLQNVFFFDPVPKRCVPYLLQKADVLLFTLSQTVMDHPAVSSYKVVDYMASGKPVLCVDIENLPFKKTKGAVFFREDNLEEALRRIFEEDLSELGRRNREYVERERDWDRLYEKLRSFVLS | not soluble
2 | MSLSPTKTRRILFLLPYVADLSVGDFSKGLNPVMQDKQIDVMMTTLDFLQNKTAKELINEFDGLIYYALDTEQHLDLLFELSLKEFPVVILDKKIYELPFPTVLSDNFQGGALAASYLIEQGHSKIAYLFGTQTHPQSVRQRYLGYLEALDKAGLTFHTSLDDKSATLDELLSYITKYEVTAFVCENDVVAIQTMNLLRQHGYHIPEDFSIIGFDDIQAAALVDPPLTTIAQDFEQLGKLAGDALVTWLETKDRPSDSKFPVSFIKRQSTKEGHHHHHH | soluble
3 | MGFFDSGIGGMTVLYEAIKVLPYEDYIFYADTLNVPYGEKSKGKVKEYIFNAAEFLASQNIKALVIACNTATSIAIEDLRRNFDFPIIGIEPAVKPAINKCTEERKRVLVVATNLTLKEEKFHNLVKEIDHHDLVDCLALPGLVEFAENFDFSEDKIIKYLKNELSSFDLKQYGTIVLGCTHFPFFKNSFEKLFGIKVDMISGSVGTAKQLKKVLADRNQLGKGSGSITFFNSGHKIVDQEVISKYKRLFEILDETQRSHVGH | not soluble
4 | MHNVVITAAVRSPIGTFGGALKNVTPVELAVPVLQEAVKRGGVEPHEVDEVILGHCIQRTDEANTARTAALAAGFPDTVTGYTIQRQCSSGMQAIMSAAMQIQLGVSEVVVAGGVEAMSSSPYALKQHRWGQRLQHGEIRDTVWEVLEDPIHHIMMGETAENLVEQYEITREEQDEVALRSHTLALKAIESGYFDDQIVPITIKERRKEVVFSKDEHPRADITAEKLAGLKPAFRKDGSVTAGNASGLNDGSAVLVLMSEEKAKEKGLQPLARIVGYSVAGVDPKIMGIGPAPAIRKGLEKVDWSLEDADLLEINEAFAAQYLAVEKELGLDREKVNVNGSGVGLGHPIGCTGARITVSLIHELKRRGLEKGIASLCVGGGIGVALFIEAL | not soluble
5 | MEAKLQVGVLGFGTVGSGVIHILEEHQEKISQVTGYHISVKKVLVRDLEKNRRYETKGFELTTNPSDVLDDPEIAVVVEVMGSITTAREYILQALKAGKHVVTANKDLIALHGDELVAVAQANNCDLFYEASVAGGIPILRTIVNSLAADKIQKVMGIVNGTTNFMLTKMTTEKK | not soluble
6 | MSLKTIAFDSNKYLNLQRDHILERISQFDGKLYMEFGGKMLEDYHAARVLPGYEPDNKIKLLKELKEQVEIVIAINANNIEHSKARGDLGISYDQEVFRLIDKFNTLDIYVGSVVITQYNNQPAADAFRKQLEKNGIASYLHYPIKGYPTDINHIISSEGMGKNDYIKTSRNLIVVTAPGPGSGKLATCMSQMYHDQINGVKSGYAKFETFPVWNLPLHHPVNLAYEAATADLDDVNMIDPFHLETYGKTAVNYNRDIEVFPVLNRTFERILSKSPYASPTDMGVNMVGFSIVNEEAAIEASKQEIIRRYYQTLVDFKAERVTESAVKKIELLMNDIGVTPDDRHVTVAAHQKAEQTGQPALALQLPNGQIVTGKTSGLFGPTAAVIINAIKTLAKIDKTTHLIEPEYVKPIQGLKVNHLGSHNPRLHSNEILIALAITAMTSEEANLAMKELGNLKGSEAHSTVILTEEDKNVLRKLGVNITFDPVYQHHKLYRKEGHHHHHH | soluble
7 | MTEETKPIKIAVIRCDIVSEACPGVGCFKAFNERKSYFKEYDEKAQMIAFFTCGGCSGRRVYRLLKALKKHNPDVVHLSSCMLMEDSYPRCPNIDTIRKTIQDAGIKVVEGTHH | not soluble
8 | MNVRITKKMVRELLEVLDEIVEEIRQEEKEKYPYAEWERKREIVKERLRKLPKYVREAVSAIRIEKRVGRPKKVDLEKRVMLFLFARLINKSNRDVEELLELFEPLFGIRVSYKTIERLYSDEEVRMALHNLFILLLKDEGVSGEFSGDGTGYSLAITKHYRSNPKKKGKDFRYVFRIIDLETGMYVGFGYSAKSEKDAFEKAMKMLKSMGVKVNSISLDKYYSTRKTLRMFDAETSVYVIPKRNLSRIGFDWLRVIERIVEMPYRFLKRYFKRNLSEAGFSADKRRFGWLIRQRREDRREMALFAVGLWHNIFAVRVMR | not soluble
